Assay results published in patent publication US7247441B2, “Nucleic acid sequence and protein in addition to polypeptides coding for mannitol dehydrogenases or parts thereof and the production and use thereof in diagnosis and therapy” (Biomay Produktions- Und Handels-Aktienge Sellschaft, priority 2002, dated 2007).

Columns and labels:
IgE of patients' sera = assay: IgE immunoblots of Cladosporium herbarum crude extract with sera from 62 patients; format: binding, human; conditions: sera from 62 patients preselected in skin test or RAST, positive to Cladosporium herbarum extract
Protocol: For the purposes of the present invention, IgE immunoblots of Cladosporium herbarum crude extract were assayed with sera from 62 patients. An immunoreactive protein of molecular weight 29 kD, which was recognized by 61% of the patients' sera, was identified. […] No other allergen in the Cladosporium herbarum extract reacted with such a high percentage of patients' sera. It is therefore assumed that this protein is the major allergen of Cladosporium herbarum.

[1] = system: IgE antibodies of C. herbarum allergy sufferers; assay: IgE immune blot of the native purified MtDH after separation in the SDS gel; format: binding, human
Protocol: The protein was purified to homogeneity in a conventional method (example 1). The yield amounted to 1 mg.
Native purified MtDH was separated by molecular weight in a reducing SDS gel (Laemmli U K, Nature, 1970; 27:680–5). Subsequently, the protein was transferred onto a PVDF membrane in a Western blot (Towbin H et al., Proc. Natl. Acad. Sci USA, 1979; 76:4350–4). After free binding sites had been saturated (30 minutes in blocking buffer: 50 mM sodium phosphate pH 7.5, 0.5% Tween 20, 0.5% BSA, 0.05% NaN3), the membrane was incubated with patients' serum (1:10 diluted in blocking buffer). Then, the membrane was washed (with blocking buffer, 3×10 minutes) to remove unspecifically bound antibodies. Specifically bound IgE-Ab were detected with the aid of an ^125I-labeled rabbit anti-human IgE antibody. After the membrane had been exposed to an X-ray film, the result was available.

[2] = system: IgE antibodies of C. herbarum allergy sufferers; assay: IgE immune blot of the native purified MtDH after 2-dimensional separation; format: binding; conditions: patients' serum 1:10, 125I-labeled anti-human IgE
Source text: (§1) Native purified MtDH was separated under denaturing conditions in an isoelectric focusing (O'Farrel P H, J. Biol. Chem., 1975; 250:4007–21) according to the net charge (isoelectric point) of the protein. Thereafter, the protein separated thus was subjected to SDS gel electrophoresis (Laemmli U K, Nature, 1970; 27:680–5), whereby a separation by molecular weight took place in addition. The protein was transferred to a PVDF membrane in a Western blot (Towbin H et al., Proc. Natl. Acad. Sci. USA, 1979; 76:4350–4). After free binding sites had been saturated (30 minutes in blocking buffer: 50 mM sodium phosphate pH 7.5, 0.5% Tween 20, 0.5% BSA, 0.05% NaN3), the membrane was incubated with patients' serum (1:10 diluted in blocking buffer). Then, the membrane was washed (with blocking buffer, 3×10 minutes) to remove unspecifically bound antibodies. Specifically bound IgE-Ab were detected with the aid of an ^125I-labeled rabbit anti-human IgE antibody. After the membrane had been exposed to an X-ray film, the results were available: […]

[3] = target: T1, Cladosporium herbarum mannitol dehydrogenase (Cladosporium herbarum, UniProt P0C0Y5); assay: Enzyme activity determination, absorption of NADPH at 340 nm; format: biochemical
T1 construct: the enzyme activity was determined with the traditionally purified protein; from tissue; host or cells: Cladosporium herbarum extract (ammonium sulfate precipitation, HIC, anion exchange)
Protocol: The experiments reveal that the highly purified major allergen of Cladosporium herbarum is indeed a mannitol dehydrogenase which catalyzes the following metabolic reaction: Fructose+NADPH+H^+ ? mannitol+NADP^+. […] The method of the activity determination is described in example 3.
To confirm the results according to the invention, the enzyme activity was determined with the traditionally purified protein. The absorption of NADPH was measured in a photometer at 340 nm.
• 50 mM Tris-HCl, pH 7.5 • 0.25 mM NADPH or NADH • D-fructose or fructose-6-phosphate (0.1; 0.2; 0.4; 0.6; 0.8; 1.0; 1.2 M) • H2O to 1 ml • the reaction is started with 0.5 μl of MtDH Results: • Reaction with fructose and NADPH • No reaction with fructose-6-phosphate and NADH

[4] = Two-dimensional separation by isoelectric focusing and SDS-PAGE; format: physicochemical
Source text: as §1

[5] = system: IgE of sera of Alternaria alternata-sensitized patients; assay: IgE immune blot of recombinant Alternaria alternata mannitol dehydrogenase with the sera of 28 patients; format: binding, human
Source text: The following procedure was chosen for purifying the recombinantly produced protein, which is provided with a poly-His fragment at the C terminus: the E. coli cells with the expression vector, which express the foreign protein, the Alternaria alternata mannitol dehydrogenase, were first lysed in the customary manner. […] The inclusion bodies formed by overexpression of the foreign protein were first solubilized in a buffer with 6-molar urea and subsequently purified by affinity chromatography over a nickel chelate column. The recombinantly produced mannitol dehydrogenase was applied in 6 M urea buffer. Imidazole buffer was employed for the elution. The protein-comprising fractions were subsequently purified further by preparative SDS-PAGE gel electrophoresis and analyzed, during which process it emerged that the allergen was already purified to virtually complete homogeneity.
The protein prepared in accordance with example 10 was separated by gel electrophoresis and tested in an IgE immune blot with the sera of 28 patients. All of the 28 sera originated from patients who had shown a positive response to the Alternaria alternata crude extract and who had been pretested both in a skin test and in an RAST. A pronounced band was visible in the immune blot in the case of 9 of the patients' sera tested. This corresponds to approximately 32% of the Alternaria alternata-sensitized patients.

Molecule | patients' sera recognizing the protein (IgE of patients' sera) [%] | reaction with IgE antibodies of C. herbarum allergy sufferers ([1]; SDS gel, patients' serum 1:10, 125I-labeled anti-human IgE) | result in the IgE immunoblot ([1]; pool of six patients) | reaction with IgE antibodies of C. herbarum allergy sufferers [2] | enzyme reaction ([3]; with fructose and NADPH) | enzyme reaction ([3]; with fructose-6-phosphate and NADH) | isoelectric point [4] | share of Alternaria alternata-sensitized patients with a pronounced band ([5]; 28 sera) | patients' sera with a pronounced band in the immune blot ([5]; of 28 sera positive to Alternaria alternata crude extract)
native purified MtDH: major allergen of Cladosporium herbarum, a NADP-dependent mannitol dehydrogenase, 29 kD, seq. ID No. 8 (protein, listed as Cladosporium herbarum) MPGQQATKHESLLDQLSLKGKVVVVTGASGPKGMGIEAARGCAEMGAAVAITYASRAQGAEENVKELEKTYGIKAKAYKCQVDSYESCEKLVKDVVADFGQIDAFIANAGATADSGILDGSVEAWNHVVQVDLNGTFHCAKAVGHHFKERGTGSLVITASMSGHIANFPQEQTSYNVAKAGCIHMARSLANEWRDFARVNSISPGYIDTGLSDFVPKETQQLWHSMIPMGRDGLAKELKGAYVYFASDASTYTTGADLLIDGGYTTR | 61 | reacts specifically | highly positive | reacts specifically | Reaction | No reaction | 5.8 | – | –
protein prepared in accordance with example 10: recombinantly produced Alternaria alternata mannitol dehydrogenase, seq. ID No. 11, purified over a nickel chelate column, approximately 30 kD (protein, listed as Alternaria alternata) MPITVPQATELKDLFSLKGKVVIVTGASGPTGIGTEAARGCAEYGADLAITYNSRAEGAEKNAKEMSEKYGVKVKAYKCQVNEYAQCEKLVQDVIKDFGKVDVFIANAGKTADNGILDATVEQWNEVIQTDLTGTFNCARAVGLHFRERKTGSLVITSSMSGHIANFPQEQASYNVAKAGCIHLAKSLANEWRDFARVNSISPGYIDTGLSDFVPQDIQKLWHSMIPMGRDAKATELKGAYVYFASDASSYCTGSDLLIDGGYCVR | – | – | – | – | – | – | – | approximately 32% | 9
